Assay results from publication PMC5492076, “β-Cyanoalanine Synthases and Their Possible Role in Pierid Host Plant Adaptation” (Insects, 2017).

Substrate: N[C@@H](CS)C(=O)O
Assay: colorimetric sulfide formation, Michaelis-Menten fit
Assay type: biochemical, Aporia crataegi
Conditions: 6 mM KCN, 20 µM pyridoxal-5'-phosphate, Tris-HCl pH 8.5, 31 °C, 10 min
Description: colorimetric sulfide formation, Michaelis-Menten fit on AcrBSAS3

B1: AcrBSAS3 (Aporia crataegi) (protein)
chain: MTNAISVSNEIKASALELIGNTPLLALDRLHPGPGRILVKCEFMNPGGSLKCRSSLHMIQKARERGELKPGGDVVEVTSGNQGCGLGVVCSVLGHPLTVTMSKGNSIQRALHMEALGAKCIRYPLVKGTYGNVTFADVEPALEGAMKMSEETGAFFVKQMANPDNIEAHYETTGPEIWRQSGHRVDAFVTAVGTSGTFTGVSKYLKEQNPEIQCFVVEPEGSQPLKGCPITKPLHMLQGASYGVVPDLFNPDLMEDSISVTDEESVHYKDLLGTKEGLFVGYTSGANVAAAVKLLNSGKLPKDAWVVTILSDTGLKYTPVPDNLIE
notes: N-terminal Strep-tag, E. coli BL21(DE3) pLysS; Strep-Tactin purified
- Km: 1.31 (±0.08) mM
- Vmax: 1.12 µmol/min/mg
